First the molecules themselves.
B1: P11 (peptide)
peptide: cyclo([dF]PQIMRIKPHQGQHIGE)
SMILES: CC[C@H](C)[C@@H]1NC(=O)[C@H](Cc2c[nH]cn2)NC(=O)[C@H](CCC(N)=O)NC(=O)CNC(=O)[C@H](CCC(N)=O)NC(=O)[C@H](Cc2c[nH]cn2)NC(=O)[C@@H]2CCCN2C(=O)[C@H](CCCCN)NC(=O)[C@H]([C@@H](C)CC)NC(=O)[C@H](CCCNC(=N)N)NC(=O)[C@H](CCSC)NC(=O)[C@H]([C@@H](C)CC)NC(=O)[C@H](CCC(N)=O)NC(=O)[C@@H]2CCCN2C(=O)[C@@H](Cc2ccccc2)NC(=O)[C@H](CCC(=O)O)NC(=O)CNC1=O
notes: Cyclopeptide; 6); also called P11 (cyclic) peptide
B2: P23 (peptide)
peptide: cyclo([dY]PRIKPHQ)
SMILES: CC[C@H](C)[C@@H]1NC(=O)[C@H](CCCNC(=N)N)NC(=O)[C@@H]2CCCN2C(=O)[C@@H](Cc2ccc(O)cc2)NC(=O)[C@H](CCC(N)=O)NC(=O)[C@H](Cc2c[nH]cn2)NC(=O)[C@@H]2CCCN2C(=O)[C@H](CCCCN)NC1=O
B3: P24 (peptide)
peptide: GRIKPH
modifications: cyclic (cyclo, ends of the linear peptide coupled)
notes: Cyclopeptide; also called cyclo(Gly-Arg-Ile-Lys-Pro-His)
B4: P20 (peptide)
peptide: cyclo([dF]PQIMRIKPHQGQHIG)
SMILES: CC[C@H](C)[C@@H]1NC(=O)[C@H](Cc2c[nH]cn2)NC(=O)[C@H](CCC(N)=O)NC(=O)CNC(=O)[C@H](CCC(N)=O)NC(=O)[C@H](Cc2c[nH]cn2)NC(=O)[C@@H]2CCCN2C(=O)[C@H](CCCCN)NC(=O)[C@H]([C@@H](C)CC)NC(=O)[C@H](CCCNC(=N)N)NC(=O)[C@H](CCSC)NC(=O)[C@H]([C@@H](C)CC)NC(=O)[C@H](CCC(N)=O)NC(=O)[C@@H]2CCCN2C(=O)[C@@H](Cc2ccccc2)NC(=O)CNC1=O
notes: Cyclopeptide
B5: P16 (peptide)
peptide: RIKPHQG
modifications: cyclic (cyclo, ends of the linear peptide coupled)
notes: Cyclopeptide; also called cyclo(Arg-Ile-Lys-Pro-His-Gln-Gly)
B6: P21 (peptide)
peptide: cyclo([dF]PIMRIKPHQGQHI)
SMILES: CC[C@H](C)[C@@H]1NC(=O)[C@H](CCCNC(=N)N)NC(=O)[C@H](CCSC)NC(=O)[C@H]([C@@H](C)CC)NC(=O)[C@@H]2CCCN2C(=O)[C@@H](Cc2ccccc2)NC(=O)[C@H]([C@@H](C)CC)NC(=O)[C@H](Cc2c[nH]cn2)NC(=O)[C@H](CCC(N)=O)NC(=O)CNC(=O)[C@H](CCC(N)=O)NC(=O)[C@H](Cc2c[nH]cn2)NC(=O)[C@@H]2CCCN2C(=O)[C@H](CCCCN)NC1=O
notes: Cyclopeptide

A word on the IC50: it is the concentration at which inhibition is half-maximal.

Square brackets hold non-standard residues; d marks the D form.

T1 sequence (P35968 20-1356 limits assumed): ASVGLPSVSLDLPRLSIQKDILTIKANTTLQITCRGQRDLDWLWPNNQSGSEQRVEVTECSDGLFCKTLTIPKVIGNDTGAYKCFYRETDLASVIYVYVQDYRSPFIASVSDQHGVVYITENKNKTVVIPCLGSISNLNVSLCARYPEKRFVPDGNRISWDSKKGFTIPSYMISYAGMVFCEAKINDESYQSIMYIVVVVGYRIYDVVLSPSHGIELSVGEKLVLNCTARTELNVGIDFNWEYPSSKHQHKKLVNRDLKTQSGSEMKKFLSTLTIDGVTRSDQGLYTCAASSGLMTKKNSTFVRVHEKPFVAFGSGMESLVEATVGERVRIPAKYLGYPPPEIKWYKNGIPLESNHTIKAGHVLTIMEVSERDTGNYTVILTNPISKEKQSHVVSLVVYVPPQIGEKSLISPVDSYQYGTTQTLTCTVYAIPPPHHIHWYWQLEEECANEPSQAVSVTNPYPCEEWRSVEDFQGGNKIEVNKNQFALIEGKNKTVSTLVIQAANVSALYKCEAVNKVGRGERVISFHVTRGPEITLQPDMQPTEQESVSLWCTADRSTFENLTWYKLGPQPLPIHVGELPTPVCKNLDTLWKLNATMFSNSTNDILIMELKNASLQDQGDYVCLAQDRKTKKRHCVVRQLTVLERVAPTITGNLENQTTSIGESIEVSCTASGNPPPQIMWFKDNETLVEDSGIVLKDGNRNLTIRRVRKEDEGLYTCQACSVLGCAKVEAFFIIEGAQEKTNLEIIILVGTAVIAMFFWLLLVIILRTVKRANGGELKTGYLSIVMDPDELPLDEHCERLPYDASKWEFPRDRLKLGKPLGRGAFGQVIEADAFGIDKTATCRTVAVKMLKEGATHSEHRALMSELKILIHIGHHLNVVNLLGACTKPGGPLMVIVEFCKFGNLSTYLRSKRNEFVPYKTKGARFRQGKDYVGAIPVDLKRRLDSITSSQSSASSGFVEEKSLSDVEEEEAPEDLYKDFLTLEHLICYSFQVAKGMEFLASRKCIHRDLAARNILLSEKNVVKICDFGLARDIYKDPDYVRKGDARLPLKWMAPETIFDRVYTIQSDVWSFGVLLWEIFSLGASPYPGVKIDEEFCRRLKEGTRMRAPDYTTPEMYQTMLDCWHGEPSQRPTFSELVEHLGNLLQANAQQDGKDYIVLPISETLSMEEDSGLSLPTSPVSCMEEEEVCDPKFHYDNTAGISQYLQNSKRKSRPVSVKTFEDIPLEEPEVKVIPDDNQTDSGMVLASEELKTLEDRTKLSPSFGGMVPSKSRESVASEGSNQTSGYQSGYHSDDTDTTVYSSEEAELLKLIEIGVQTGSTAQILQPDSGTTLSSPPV

The first assay concerns the target T1, KDR receptor (VEGFR-2) (UniProt P35968 20-1356, limits assumed). The experiment in a line: cell-based or functional assay.
In the case of B1, the “Migration (IC50)” value came to 30 µM and the “Proliferation (IC50)” value came to 7 µM.

For another assay, the target named is KDR receptor (VEGFR-2) (UniProt P35968). The experiment in a line: displacement of 125I-VEGF from CHOm VEGFR2 cells. (Loss of bound radioactivity is the signal in a displacement assay; it reports binding, not function.)
Sequence of KDR receptor (VEGFR-2) (UniProt P35968) (P35968 20-1356 limits assumed): as above
B2 yielded an IC50 of 8 µM.

In the next assay the target is T1, KDR receptor (VEGFR-2). Put plainly: displacement of 125I-VEGF from CHOm VEGFR2 cells.
For the molecule B1, the concentration for half-maximal inhibition (IC50) is 2 µM. In other words, the single-digit micromolar range.
On the same count and under the same terms, to PRIKPHQGQH (cyclic (cyclo, ends of the linear peptide coupled), Cyclopeptide) [P9] belongs 300 µM.
On the same count and under the same terms, the same measure for GQIMRIKPHQGQHIGE (cyclic (cyclo, ends of the linear peptide coupled), Cyclopeptide) [P12]: 300 µM.
PRIKPHQG (cyclic (cyclo, ends of the linear peptide coupled), Cyclopeptide) [P17] had a half-inhibitory concentration (IC50) of 10 µM.
Molecule B3 yielded an IC50 of 8 µM.
Still for that read-out and setting: the same measure for GRIKPHQGH (cyclic (cyclo, ends of the linear peptide coupled), Cyclopeptide) [P8]: 200 µM; for B4: 10 µM; for B5: 32 µM.
The same measure, in the same setting: the same measure for QIMRIKPHQGQHIGE (cyclic (cyclo, cyclised on the solid phase, method B), Cyclopeptide) [P19]: 5 µM.
Same read-out and setting: to B6 belongs 200 µM.

The values are drawn from patent USRE44022 (COMMISSARIAT A L ENERGIE ATOMIQUE, dated 2013).
